Measurements taken from paper PMC5538822, “RNA-dependent stabilization of SUV39H1 at constitutive heterochromatin”.

Columns and labels:
[1] = target: T1, MBP-SUV39H1 1-106 (NTE + chromodomain) (Homo sapiens) (UniProt O43463); test: EMSA; details: 20 mM Tris-HCl pH 7.4, 50 mM NaCl, 10% glycerol, ~4 U RNase inhibitor, room temperature 10 min; native gel 0.5X TBE at 25 C; filter binding on nitrocellulose …
T1 sequence: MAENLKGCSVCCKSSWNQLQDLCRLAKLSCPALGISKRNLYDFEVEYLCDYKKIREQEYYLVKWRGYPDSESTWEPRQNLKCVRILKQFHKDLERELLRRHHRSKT

[2] = target: T2, MBP-SUV39H1 1-106 (NTE + chromodomain) (Homo sapiens, UniProt O43463 1-106); test: EMSA; 20 mM Tris-HCl pH 7.4, 50 mM NaCl, 10% glycerol, ~4 U RNase inhibitor, room temperature 10 min; native gel 0.5X TBE at 25 C; filter binding on nitrocellulose in the same buffer; details: protein: recombinant, tags: MBP, label: 32P
T2 sequence: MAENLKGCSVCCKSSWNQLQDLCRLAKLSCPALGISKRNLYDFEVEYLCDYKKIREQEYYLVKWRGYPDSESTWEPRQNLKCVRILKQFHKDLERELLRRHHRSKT

[3] = target: T3, MBP-SUV39H1 42-106 (chromodomain) (Homo sapiens, UniProt O43463 42-106); test: as above; details: protein: recombinant; tags: MBP; label: 32P
T3 sequence: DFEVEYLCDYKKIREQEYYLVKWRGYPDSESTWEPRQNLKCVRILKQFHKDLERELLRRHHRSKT

[4] = target: T4, MBP-SUV39H1 1-41 (N-terminal extension) (Homo sapiens, UniProt O43463 1-41); test: as above; details: protein: recombinant; tags: MBP; label: 32P
T4 chain: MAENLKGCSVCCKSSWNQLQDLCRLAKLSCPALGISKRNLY

[5] = target: T5, MBP-SUV39H1 107-412 (pre-SET, SET, post-SET) (Homo sapiens, UniProt O43463 107-412); test: as above; details: protein: recombinant; tags: MBP; label: 32P
T5 sequence: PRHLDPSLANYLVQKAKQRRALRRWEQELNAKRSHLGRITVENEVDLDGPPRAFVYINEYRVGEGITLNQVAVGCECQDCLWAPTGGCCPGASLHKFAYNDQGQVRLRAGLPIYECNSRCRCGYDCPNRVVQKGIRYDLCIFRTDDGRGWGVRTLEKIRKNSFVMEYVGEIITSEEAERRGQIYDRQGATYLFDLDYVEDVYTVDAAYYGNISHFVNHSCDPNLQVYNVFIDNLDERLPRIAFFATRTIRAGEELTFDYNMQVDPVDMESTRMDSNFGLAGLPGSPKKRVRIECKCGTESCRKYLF

In the case of alpha-satellite ssRNA (180mer), the Kd [1] is reported as 23 nM.

beta-actin ssRNA (180mer) gave a Kd [1] of 32 nM.

ACCAAAATCGAAGAAGGTAAACTGGTAATCTGGATTAACGGCGATAAAGG (ssDNA) [ssDNA, sense MBP 1-50]: binds [2].

B1: dsDNA MBP 1-50 (dsDNA)
DNA 1: ACCAAAATCGAAGAAGGTAAACTGGTAATCTGGATTAACGGCGATAAAGG
DNA 2: CCTTTATCGCCGTTAATCCAGATTACCAGTTTACCTTCTTCGATTTTGGT
In the case of B1, the Kd ([2]; blunt) is reported as 185 ± 17 nM.

GGGAUCAGUGGUUCCCAUA (ssRNA) [antisense 19mer ssRNA] gave a Kd [2] of 366 ± 22 nM.

B2: dsRNA MBP 1-50 (dsRNA)
RNA 1: ACCAAAAUCGAAGAAGGUAAACUGGUAAUCUGGAUUAACGGCGAUAAAGG
RNA 2: CCUUUAUCGCCGUUAAUCCAGAUUACCAGUUUACCUUCUUCGAUUUUGGU
B2: binds ([2]; blunt).

Work on CCUUUAUCGCCGUUAAUCCAGAUUACCAGUUUACCUUCUUCGAUUUUGGU (ssRNA) [ssRNA2, antisense MBP 1-50] yielded a Kd [2] of 64 ± 3 nM.

Work on ACCAAAAUCGAAGAAGGUAAACUGGUAAUCUGGAUUAACGGCGAUAAAGG (ssRNA) [ssRNA1, sense MBP 1-50] yielded a Kd [2] of 61 ± 5 nM.

For AUAUGGGAACCACUGAUCC (ssRNA) [sense 19mer ssRNA], the Kd [3] was 2310 ± 170 nM, the Kd [2] was 145 ± 9 nM and the Kd [4] was 51000 ± 30000 nM. AUAUGGGAACCACUGAUCC (ssRNA) [sense 19mer ssRNA]: no binding [5].
